Data from IntAct's records for PubMed 30126976.

B1: Ribosomal protein S6 kinase alpha-2 (Homo sapiens), Q15349 (parent)
chain: MDLSMKKFAVRRFFSVYLRRKSRSKSSSLSRLEEEGVVKEIDISHHVKEGFEKADPSQFELLKVLGQGSYGKVFLVRKVKGSDAGQLYAMKVLKKATLKVRDRVRSKMERDILAEVNHPFIVKLHYAFQTEGKLYLILDFLRGGDLFTRLSKEVMFTEEDVKFYLAELALALDHLHSLGIIYRDLKPENILLDEEGHIKITDFGLSKEAIDHDKRAYSFCGTIEYMAPEVVNRRGHTQSADWWSFGVLMFEMLTGSLPFQGKDRKETMALILKAKLGMPQFLSGEAQSLLRALFKRNPCNRLGAGIDGVEEIKRHPFFVTIDWNTLYRKEIKPPFKPAVGRPEDTFHFDPEFTARTPTDSPGVPPSANAHHLFRGFSFVASSLIQEPSQQDLHKVPVHPIVQQLHGNNIHFTDGYEIKEDIGVGSYSVCKRCVHKATDTEYAVKIIDKSKRDPSEEIEILLRYGQHPNIITLKDVYDDGKFVYLVMELMRGGELLDRILRQRYFSEREASDVLCTITKTMDYLHSQGVVHRDLKPSNILYRDESGSPESIRVCDFGFAKQLRAGNGLLMTPCYTANFVAPEVLKRQGYDAACDIWSLGILLYTMLAGFTPFANGPDDTPEEILARIGSGKYALSGGNWDSISDAAKDVVSKMLHVDPHQRLTAMQVLKHPWVVNREYLSPNQLSRQDVHLVKGAMAATYFALNRTPQAPRLEPVLSSNLAQRRGMKRLTSTRL
B2: Mitogen-activated protein kinase 12 (Homo sapiens), P53778 (parent)
chain: MSSPPPARSGFYRQEVTKTAWEVRAVYRDLQPVGSGAYGAVCSAVDGRTGAKVAIKKLYRPFQSELFAKRAYRELRLLKHMRHENVIGLLDVFTPDETLDDFTDFYLVMPFMGTDLGKLMKHEKLGEDRIQFLVYQMLKGLRYIHAAGIIHRDLKPGNLAVNEDCELKILDFGLARQADSEMTGYVVTRWYRAPEVILNWMRYTQTVDIWSVGCIMAEMITGKTLFKGSDHLDQLKEIMKVTGTPPAEFVQRLQSDEAKNYMKGLPELEKKDFASILTNASPLAVNLLEKMLVLDAEQRVTAGEALAHPYFESLHDTEDEPQVQKYDDSFDDVDRTLDEWKRVTYKEVLSFKPPRQLGARVSKETPL
B3: Olfactory receptor 5F1 (Homo sapiens), O95221 (parent)
chain: MTRKNYTSLTEFVLLGLADTLELQIILFLFFLVIYTLTVLGNLGMILLIRIDSQLHTPMYFFLANLSFVDVCNSTTITPKMLADLLSEKKTISFAGCFLQMYFFISLATTECILFGLMAYDRYAAICRPLLYSLIMSRTVYLKMAAGAFAAGLLNFMVNTSHVSSLSFCDSNVIHHFFCDSPPLFKLSCSDTILKESISSILAGVNIVGTLLVILSSYSYVLFSIFSMHSGEGRHRAFSTCASHLTAIILFYATCIYTYLRPSSSYSLNQDKVASVFYTVVIPMLNPLIYSLRSKEVKKALANVISRKRTSSFL
B4: Disintegrin and metalloproteinase domain-containing protein 22 (Homo sapiens), Q9P0K1 (parent)
chain: MQAAVAVSVPFLLLCVLGTCPPARCGQAGDASLMELEKRKENRFVERQSIVPLRLIYRSGGEDESRHDALDTRVRGDLGGPQLTHVDQASFQVDAFGTSFILDVVLNHDLLSSEYIERHIEHGGKTVEVKGGEHCYYQGHIRGNPDSFVALSTCHGLHGMFYDGNHTYLIEPEENDTTQEDFHFHSVYKSRLFEFSLDDLPSEFQQVNITPSKFILKPRPKRSKRQLRRYPRNVEEETKYIELMIVNDHLMFKKHRLSVVHTNTYAKSVVNMADLIYKDQLKTRIVLVAMETWATDNKFAISENPLITLREFMKYRRDFIKEKSDAVHLFSGSQFESSRSGAAYIGGICSLLKGGGVNEFGKTDLMAVTLAQSLAHNIGIISDKRKLASGECKCEDTWSGCIMGDTGYYLPKKFTQCNIEEYHDFLNSGGGACLFNKPSKLLDPPECGNGFIETGEECDCGTPAECVLEGAECCKKCTLTQDSQCSDGLCCKKCKFQPMGTVCREAVNDCDIRETCSGNSSQCAPNIHKMDGYSCDGVQGICFGGRCKTRDRQCKYIWGQKVTASDKYCYEKLNIEGTEKGNCGKDKDTWIQCNKRDVLCGYLLCTNIGNIPRLGELDGEITSTLVVQQGRTLNCSGGHVKLEEDVDLGYVEDGTPCGPQMMCLEHRCLPVASFNFSTCLSSKEGTICSGNGVCSNELKCVCNRHWIGSDCNTYFPHNDDAKTGITLSGNGVAGTNIIIGIIAGTILVLALILGITAWGYKNYREQRQLPQGDYVKKPGDGDSFYSDIPPGVSTNSASSSKKRSNGLSHSWSERIPDTKHISDICENGRPRSNSWQGNLGGNKKKIRGKRFRPRSNSTETLSPAKSPSSSTGSIASSRKYPYPMPPLPDEDKKVNRQSARLWETSI

Variants of: B1
Conditions: with dlg1_human DLG1, Q12959
Target sequence in this assay (Q12959 whole entry, looked up): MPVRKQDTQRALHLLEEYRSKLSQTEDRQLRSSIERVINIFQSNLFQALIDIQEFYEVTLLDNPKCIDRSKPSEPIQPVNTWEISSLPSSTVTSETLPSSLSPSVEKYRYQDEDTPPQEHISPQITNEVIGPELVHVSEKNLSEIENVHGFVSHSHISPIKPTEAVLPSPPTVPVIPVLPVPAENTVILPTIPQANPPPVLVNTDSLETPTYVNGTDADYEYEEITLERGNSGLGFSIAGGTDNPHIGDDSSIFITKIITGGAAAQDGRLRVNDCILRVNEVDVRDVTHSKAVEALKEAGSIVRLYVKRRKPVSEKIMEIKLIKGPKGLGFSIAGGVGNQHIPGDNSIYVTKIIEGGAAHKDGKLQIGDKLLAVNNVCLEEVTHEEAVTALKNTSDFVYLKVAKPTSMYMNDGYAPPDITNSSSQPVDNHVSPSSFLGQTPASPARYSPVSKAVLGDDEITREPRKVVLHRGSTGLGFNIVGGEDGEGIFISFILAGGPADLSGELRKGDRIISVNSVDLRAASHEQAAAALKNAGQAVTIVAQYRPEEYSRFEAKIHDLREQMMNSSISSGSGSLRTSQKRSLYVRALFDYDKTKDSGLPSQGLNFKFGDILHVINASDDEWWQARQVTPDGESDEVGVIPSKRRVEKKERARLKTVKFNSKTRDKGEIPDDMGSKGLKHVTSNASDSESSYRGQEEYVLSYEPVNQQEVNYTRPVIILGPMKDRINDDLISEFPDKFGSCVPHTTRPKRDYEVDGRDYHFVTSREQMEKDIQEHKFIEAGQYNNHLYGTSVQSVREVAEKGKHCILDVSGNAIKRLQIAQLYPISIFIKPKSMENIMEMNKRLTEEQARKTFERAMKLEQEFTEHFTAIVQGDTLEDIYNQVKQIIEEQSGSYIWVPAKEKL

| Variant | effect of a mutation on the interaction |
| --- | --- |
| S730E | increasing interaction strength |

Variants of: B1
Conditions: with scrib_human SCRIB
Target sequence in this assay (Q14160 whole entry): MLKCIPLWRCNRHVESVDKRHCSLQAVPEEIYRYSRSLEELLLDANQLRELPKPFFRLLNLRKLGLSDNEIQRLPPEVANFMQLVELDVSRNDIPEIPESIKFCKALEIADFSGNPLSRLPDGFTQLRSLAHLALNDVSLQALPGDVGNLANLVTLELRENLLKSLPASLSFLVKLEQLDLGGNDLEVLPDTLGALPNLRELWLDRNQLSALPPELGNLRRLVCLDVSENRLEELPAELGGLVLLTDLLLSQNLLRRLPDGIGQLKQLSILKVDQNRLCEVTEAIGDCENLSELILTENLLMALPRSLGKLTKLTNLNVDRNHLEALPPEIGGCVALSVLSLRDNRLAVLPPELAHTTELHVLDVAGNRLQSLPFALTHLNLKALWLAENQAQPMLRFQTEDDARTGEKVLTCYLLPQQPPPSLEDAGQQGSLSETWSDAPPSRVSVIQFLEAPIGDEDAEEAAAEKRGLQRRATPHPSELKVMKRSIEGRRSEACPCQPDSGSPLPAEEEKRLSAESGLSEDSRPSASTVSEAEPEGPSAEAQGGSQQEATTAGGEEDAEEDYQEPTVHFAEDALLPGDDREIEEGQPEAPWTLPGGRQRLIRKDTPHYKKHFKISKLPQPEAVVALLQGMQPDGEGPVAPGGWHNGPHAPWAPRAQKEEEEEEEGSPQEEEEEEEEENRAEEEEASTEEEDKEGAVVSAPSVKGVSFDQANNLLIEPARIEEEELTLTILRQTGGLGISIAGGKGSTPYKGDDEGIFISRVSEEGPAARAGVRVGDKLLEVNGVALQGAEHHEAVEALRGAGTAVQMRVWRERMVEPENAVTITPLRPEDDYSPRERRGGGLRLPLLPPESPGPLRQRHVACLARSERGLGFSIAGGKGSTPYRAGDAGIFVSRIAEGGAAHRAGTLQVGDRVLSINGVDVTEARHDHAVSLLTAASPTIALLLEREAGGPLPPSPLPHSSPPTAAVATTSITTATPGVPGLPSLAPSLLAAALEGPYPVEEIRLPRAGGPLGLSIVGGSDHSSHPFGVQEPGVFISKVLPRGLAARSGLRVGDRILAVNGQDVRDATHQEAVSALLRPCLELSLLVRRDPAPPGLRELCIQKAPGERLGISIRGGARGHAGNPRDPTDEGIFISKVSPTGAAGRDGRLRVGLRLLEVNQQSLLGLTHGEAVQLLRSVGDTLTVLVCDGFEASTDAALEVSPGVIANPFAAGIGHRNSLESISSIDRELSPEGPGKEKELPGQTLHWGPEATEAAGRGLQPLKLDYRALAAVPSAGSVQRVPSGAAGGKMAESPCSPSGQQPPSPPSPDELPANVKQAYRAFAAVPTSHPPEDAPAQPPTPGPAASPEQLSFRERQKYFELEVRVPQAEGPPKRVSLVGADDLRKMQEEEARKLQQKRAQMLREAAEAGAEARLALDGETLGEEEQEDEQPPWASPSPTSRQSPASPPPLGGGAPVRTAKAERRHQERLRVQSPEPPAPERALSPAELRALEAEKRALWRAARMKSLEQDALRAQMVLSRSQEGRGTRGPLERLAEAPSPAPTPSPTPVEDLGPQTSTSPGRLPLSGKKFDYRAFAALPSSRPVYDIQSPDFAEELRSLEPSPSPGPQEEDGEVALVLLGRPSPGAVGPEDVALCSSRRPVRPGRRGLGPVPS

| Variant | effect of a mutation on the interaction |
| --- | --- |
| S730E | increasing interaction strength |

Variants of: B1
Conditions: with shan1_human SHANK1, Q9Y566
Sequence of shan1_human SHANK1, Q9Y566 (Q9Y566 whole entry): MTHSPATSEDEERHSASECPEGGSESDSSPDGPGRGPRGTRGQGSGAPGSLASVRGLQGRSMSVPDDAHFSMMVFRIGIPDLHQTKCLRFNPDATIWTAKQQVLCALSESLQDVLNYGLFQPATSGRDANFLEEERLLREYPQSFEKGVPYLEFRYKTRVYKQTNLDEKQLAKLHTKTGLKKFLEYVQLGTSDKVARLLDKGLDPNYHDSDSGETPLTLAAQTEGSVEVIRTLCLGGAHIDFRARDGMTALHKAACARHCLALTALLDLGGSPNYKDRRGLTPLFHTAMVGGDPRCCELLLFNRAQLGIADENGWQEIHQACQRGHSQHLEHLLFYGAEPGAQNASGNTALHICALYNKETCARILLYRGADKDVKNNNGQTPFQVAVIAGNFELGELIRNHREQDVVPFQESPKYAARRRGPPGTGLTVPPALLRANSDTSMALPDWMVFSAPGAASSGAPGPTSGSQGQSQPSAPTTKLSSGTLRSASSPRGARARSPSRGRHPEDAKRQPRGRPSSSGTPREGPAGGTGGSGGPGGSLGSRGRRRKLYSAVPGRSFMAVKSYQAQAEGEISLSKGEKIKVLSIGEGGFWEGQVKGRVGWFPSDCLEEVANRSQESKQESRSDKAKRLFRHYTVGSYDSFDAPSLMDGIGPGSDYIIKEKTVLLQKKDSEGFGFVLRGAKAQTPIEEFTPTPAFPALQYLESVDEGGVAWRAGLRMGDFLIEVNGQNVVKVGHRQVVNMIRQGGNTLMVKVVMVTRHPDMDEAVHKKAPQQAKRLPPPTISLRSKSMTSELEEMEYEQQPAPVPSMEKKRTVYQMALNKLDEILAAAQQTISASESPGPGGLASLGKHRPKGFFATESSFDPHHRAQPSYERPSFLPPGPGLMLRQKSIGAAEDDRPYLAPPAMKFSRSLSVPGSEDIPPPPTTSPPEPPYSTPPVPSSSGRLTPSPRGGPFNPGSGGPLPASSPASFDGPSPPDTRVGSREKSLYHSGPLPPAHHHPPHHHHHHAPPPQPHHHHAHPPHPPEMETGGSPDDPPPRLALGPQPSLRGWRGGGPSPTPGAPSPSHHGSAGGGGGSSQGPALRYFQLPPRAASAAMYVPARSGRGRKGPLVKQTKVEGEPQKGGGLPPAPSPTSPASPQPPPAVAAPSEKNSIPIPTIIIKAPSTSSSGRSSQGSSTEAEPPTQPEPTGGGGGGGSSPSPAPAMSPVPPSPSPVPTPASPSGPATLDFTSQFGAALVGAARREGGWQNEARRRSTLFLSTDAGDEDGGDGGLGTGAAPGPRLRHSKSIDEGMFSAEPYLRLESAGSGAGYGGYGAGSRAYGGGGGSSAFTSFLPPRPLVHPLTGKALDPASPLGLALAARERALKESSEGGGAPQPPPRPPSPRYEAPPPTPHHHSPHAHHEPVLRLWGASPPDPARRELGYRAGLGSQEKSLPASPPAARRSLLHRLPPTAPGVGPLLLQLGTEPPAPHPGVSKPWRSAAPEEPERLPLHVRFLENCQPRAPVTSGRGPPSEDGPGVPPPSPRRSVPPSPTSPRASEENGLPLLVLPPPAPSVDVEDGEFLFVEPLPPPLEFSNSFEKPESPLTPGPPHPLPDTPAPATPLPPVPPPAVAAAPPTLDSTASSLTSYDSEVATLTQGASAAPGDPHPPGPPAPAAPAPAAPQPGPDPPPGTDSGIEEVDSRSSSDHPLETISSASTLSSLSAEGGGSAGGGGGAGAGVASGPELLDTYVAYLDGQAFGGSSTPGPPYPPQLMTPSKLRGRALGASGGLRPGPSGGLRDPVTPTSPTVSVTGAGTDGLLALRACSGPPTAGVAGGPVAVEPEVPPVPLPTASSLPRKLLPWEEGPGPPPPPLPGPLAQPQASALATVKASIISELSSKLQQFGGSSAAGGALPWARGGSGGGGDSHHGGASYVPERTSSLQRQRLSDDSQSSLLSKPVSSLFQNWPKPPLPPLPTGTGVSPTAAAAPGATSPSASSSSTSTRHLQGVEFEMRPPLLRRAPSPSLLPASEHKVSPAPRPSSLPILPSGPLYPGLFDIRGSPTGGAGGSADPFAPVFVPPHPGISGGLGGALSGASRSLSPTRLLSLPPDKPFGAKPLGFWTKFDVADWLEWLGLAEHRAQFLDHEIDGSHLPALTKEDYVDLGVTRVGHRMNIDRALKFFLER

| Variant | effect of a mutation on the interaction |
| --- | --- |
| S730E | decreasing interaction strength |

Variants of: B1
Conditions: with scrib_human SCRIB
Remark: another data set of the same source
Target sequence in this assay (Q14160 whole entry): as the sequence (Q14160 whole entry) above

| Variant | effect of a mutation on the interaction |
| --- | --- |
| S730E | causing an interaction |

Variants of: B1
Conditions: with scrib_human SCRIB
Remark: another data set of the same source
Target sequence in this assay (Q14160 whole entry): as above

| Variant | effect of a mutation on the interaction |
| --- | --- |
| S730A | with no effect |

Variants of: B2
Conditions: with scrib_human SCRIB
Target sequence in this assay (Q14160 whole entry): as above

| Variant | effect of a mutation on the interaction |
| --- | --- |
| MSSPPPARSGFYRQEVTKTAWEVRAVYRDLQPVGSGAYGAVCSAVDGRTGAKVAIKKLYRPFQSELFAKRAYRELRLLKHMRHENVIGLLDVFTPDETLDDFTDFYLVMPFMGTDLGKLMKHEKLGEDRIQFLVYQMLKGLRYIHAAGIIHRDLKPGNLAVNEDCELKILDFGLARQADSEMTGYVVTRWYRAPEVILNWMRYTQTVDIWSVGCIMAEMITGKTLFKGSDHLDQLKEIMKVTGTPPAEFVQRLQSDEAKNYMKGLPELEKKDFASILTNASPLAVNLLEKMLVLDAEQRVTAGEALAHPYFESLHDTEDEPQVQKYDDSFDDVDRTLDEWKRVTYKEVLSFKPPRQLGARVSKEEPL [T365E] | disrupting interaction strength |

Variants of: B2
Conditions: with dlg1_human DLG1, Q12959
Target sequence in this assay (Q12959 whole entry, looked up): as the sequence (Q12959 whole entry, looked up) above

| Variant | effect of a mutation on the interaction |
| --- | --- |
| MSSPPPARSGFYRQEVTKTAWEVRAVYRDLQPVGSGAYGAVCSAVDGRTGAKVAIKKLYRPFQSELFAKRAYRELRLLKHMRHENVIGLLDVFTPDETLDDFTDFYLVMPFMGTDLGKLMKHEKLGEDRIQFLVYQMLKGLRYIHAAGIIHRDLKPGNLAVNEDCELKILDFGLARQADSEMTGYVVTRWYRAPEVILNWMRYTQTVDIWSVGCIMAEMITGKTLFKGSDHLDQLKEIMKVTGTPPAEFVQRLQSDEAKNYMKGLPELEKKDFASILTNASPLAVNLLEKMLVLDAEQRVTAGEALAHPYFESLHDTEDEPQVQKYDDSFDDVDRTLDEWKRVTYKEVLSFKPPRQLGARVSKEEPL [T365E] | disrupting interaction strength |

Variants of: B3
Conditions: with scrib_human SCRIB
Target sequence in this assay (Q14160 whole entry): as the sequence (Q14160 whole entry) above

| Variant | effect of a mutation on the interaction |
| --- | --- |
| MTRKNYTSLTEFVLLGLADTLELQIILFLFFLVIYTLTVLGNLGMILLIRIDSQLHTPMYFFLANLSFVDVCNSTTITPKMLADLLSEKKTISFAGCFLQMYFFISLATTECILFGLMAYDRYAAICRPLLYSLIMSRTVYLKMAAGAFAAGLLNFMVNTSHVSSLSFCDSNVIHHFFCDSPPLFKLSCSDTILKESISSILAGVNIVGTLLVILSSYSYVLFSIFSMHSGEGRHRAFSTCASHLTAIILFYATCIYTYLRPSSSYSLNQDKVASVFYTVVIPMLNPLIYSLRSKEVKKALANVISRKRTESFL [S311E] | causing an interaction |

Variants of: B4
Conditions: with scrib_human SCRIB
Target sequence in this assay (Q14160 whole entry): as the sequence (Q14160 whole entry) above

| Variant | effect of a mutation on the interaction |
| --- | --- |
| S898E | decreasing interaction strength |
